# Source: publication PMC11687654
# How the values were obtained:
# [1] = target: TDP-43-flag (pcDNA3.1 construct) (UniProt Q13148); experiment: AlphaScreen or HTRF; proximity AlphaLISA on lysates of co-transfected HEK293FT cells, 72 hr after transfection; anti-FLAG acceptor beads, biotinylated Ataxin-2 antibody and streptavidin donor beads; room temperature
# [2] = target: TDP-43mutRRM-flag (pcDNA3.1 construct) (UniProt Q13148); experiment: as above
# Sequence of TDP-43mutRRM-flag (pcDNA3.1 construct) (Q13148 whole entry): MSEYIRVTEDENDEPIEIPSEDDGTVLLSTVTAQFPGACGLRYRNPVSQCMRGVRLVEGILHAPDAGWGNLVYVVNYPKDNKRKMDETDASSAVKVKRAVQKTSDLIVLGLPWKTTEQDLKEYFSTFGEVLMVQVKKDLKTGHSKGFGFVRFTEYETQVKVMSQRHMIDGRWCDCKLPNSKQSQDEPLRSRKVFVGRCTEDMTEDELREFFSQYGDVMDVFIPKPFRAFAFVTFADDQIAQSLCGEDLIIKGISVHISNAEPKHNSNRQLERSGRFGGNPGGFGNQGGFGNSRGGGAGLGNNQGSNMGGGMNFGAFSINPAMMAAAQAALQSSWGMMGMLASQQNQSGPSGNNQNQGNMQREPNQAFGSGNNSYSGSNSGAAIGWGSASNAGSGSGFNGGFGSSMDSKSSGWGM
# Sequence of Ataxin-2 (ATXN2, pcDNA3.1 construct) (Q99700 whole entry): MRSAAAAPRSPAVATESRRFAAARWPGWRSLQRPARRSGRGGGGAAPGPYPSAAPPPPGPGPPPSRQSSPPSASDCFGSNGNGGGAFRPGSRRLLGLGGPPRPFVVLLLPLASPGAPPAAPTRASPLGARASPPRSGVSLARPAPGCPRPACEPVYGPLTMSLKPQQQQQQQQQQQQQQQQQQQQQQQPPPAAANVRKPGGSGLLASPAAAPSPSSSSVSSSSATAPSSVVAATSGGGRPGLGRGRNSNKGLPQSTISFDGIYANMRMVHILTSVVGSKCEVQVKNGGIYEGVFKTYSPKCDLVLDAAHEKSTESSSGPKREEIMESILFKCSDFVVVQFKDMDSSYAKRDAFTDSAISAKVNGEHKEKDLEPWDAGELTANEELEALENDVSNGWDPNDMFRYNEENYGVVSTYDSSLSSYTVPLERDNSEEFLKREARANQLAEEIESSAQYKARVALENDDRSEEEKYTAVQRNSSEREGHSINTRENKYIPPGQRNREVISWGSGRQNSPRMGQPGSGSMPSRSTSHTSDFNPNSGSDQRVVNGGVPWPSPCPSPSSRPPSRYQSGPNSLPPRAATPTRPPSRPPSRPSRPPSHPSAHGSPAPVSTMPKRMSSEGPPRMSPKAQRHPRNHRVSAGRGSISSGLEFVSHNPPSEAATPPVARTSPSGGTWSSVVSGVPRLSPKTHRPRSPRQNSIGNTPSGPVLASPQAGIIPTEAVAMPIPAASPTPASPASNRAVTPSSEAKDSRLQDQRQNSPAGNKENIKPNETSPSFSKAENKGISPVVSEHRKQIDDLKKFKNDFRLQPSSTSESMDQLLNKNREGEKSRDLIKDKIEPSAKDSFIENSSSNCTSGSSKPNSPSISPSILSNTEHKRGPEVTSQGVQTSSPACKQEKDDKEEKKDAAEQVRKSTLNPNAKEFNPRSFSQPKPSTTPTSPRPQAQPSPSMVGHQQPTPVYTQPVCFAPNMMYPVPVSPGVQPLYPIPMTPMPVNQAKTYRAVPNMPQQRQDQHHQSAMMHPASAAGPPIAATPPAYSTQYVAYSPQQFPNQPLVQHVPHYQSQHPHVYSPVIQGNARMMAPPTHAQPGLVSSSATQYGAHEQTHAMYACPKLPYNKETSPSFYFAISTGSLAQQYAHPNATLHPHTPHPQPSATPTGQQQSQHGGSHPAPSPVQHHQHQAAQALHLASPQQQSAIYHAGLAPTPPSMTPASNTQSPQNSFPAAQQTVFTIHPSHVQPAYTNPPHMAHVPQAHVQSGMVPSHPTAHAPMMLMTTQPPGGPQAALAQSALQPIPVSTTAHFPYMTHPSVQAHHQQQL
# Sequence of TDP-43-flag (pcDNA3.1 construct) (Q13148 whole entry): as the sequence (Q13148 whole entry) above
substance,measurement,setting,value
"Ataxin-2 (ATXN2, pcDNA3.1 construct) (from UniProt Q99700 1-1313) (natural protein)",fold increase of the AlphaLISA interaction signal,[1],22 fold
same,fold increase of the AlphaLISA interaction signal,[2],2 fold
